Test results: US20220315908A1, “NOVEL GARDNERELLA ENDOLYSINS AND USES THEREOF” (priority 2019, published 2022)

Key:
[1] = system: four Gardnerella strains (Gv_9, Gv_11, Gv_17, Gv_23); assay: CFU reduction averaged across the four Gardnerella strains, with activity ranks; type: cell-based; details: for average of the log 10 activities of each construct across the four Gardnerella strains: pH 5.0, 5 hours, anaerobic; for activity rank of all endolysins: rank 1-91, based on the data of Table 5B
Experimental: (§1) The lysis activity on the four main species of Gardnerella of 91 constructs (natural and domain-swapped endolysins) was quantitatively assessed using the method described in Reference Example 2. Briefly, 90 ul 5e7 CFU/ml of the indicated strain were incubated for 5 hours at pH 5.0 under anaerobic conditions with 10 ul endolysin (concentration adjusted to 0.2 mg/ml where possible, see Table 4).
(§2) The results are shown in FIGS. 8A to 8D together with Tables 5A to 5C. In FIGS. 8A to 8D, the logarithmic Y axis depicts the count of surviving cells. The dotted line indicates the limit of detection (LOD) given by plating of 2 ul of the reaction mix (500 CFU/ml). Each combination of the natural 10 H-domains and the natural 9 B-regions was assessed, including the natural endolysins (H1B1, H2B2, H3B3, etc.), plus H6B6. […] The activity of each construct was measured on each of the 4 main Gardnerella species G. vaginalis sensu stricto, G. leopoldii, G. piotii, and G. swidsinkii. All conditions have been measured in triplicate. The survival after 5 hours incubation at pH 5.0 under anaerobic conditions with endolysins vs. buffer was measured by quantitative plating. The values indicate the log 10 of the ratio of surviving CFU for treated vs. untreated cells. The average of the triplicate measurements is used. In tables 5A and 5B, high negative log 10 values, e.g. −6.7, −5.5, −4.8 etc. are associated with high enzymatic activity, while log 10 values closer to zero or even positive log 10 values are associated with low or no enzymatic activity. […] Inversely, a reduction value of −3.7 means a 10^3.7-fold (=5012-fold) reduction of viable CFU in treated sample vs. untreated control.
(§3) Gardnerella cells were recovered from cryo stock by plating on Chocolate Agar plates (Beckton Dickinson) and incubating for 48 h at 37° C. under anaerobic conditions. For Lactobacilli, BD Schaedler/5% sheep blood agar plates were used instead. Colonies were scraped from the plate, resuspended in Hardy Broth or NYC-III-HS-5.0 at the pH as indicated, and the suspension adjusted to OD (610 or 620 nm as indicated) 0.1. It has to be noted that two Tecan Microplate readers, having respectively a 610 nm or 620 nm filter, have been used interchangeably in the experiments. Although it doesn't make any difference for the experiments, the exact wavelength used is specified in each example. If not stated otherwise, 90 μl cell suspension was mixed with 10 μl endolysin solution, for the different species/endolysin combinations, in 384-well plates. OD(610-620 nm as indicated) was measured at the beginning of the reaction and at the end, either as two measurement points or as a continuous kinetic in a Tecan F200 Microplate reader. The reactions were incubated for 5 hours (or otherwise the time indicated) at 37° C. under anaerobic, micro-aerophilic or aerobic conditions as indicated. Anaerobic conditions intend that oxygen was fully depleted from the container in which the bacteria are incubated (Sigma-Aldrich anaerobic jar or sealable lunch box) with an anaerobic sachet, and the lack of oxygen was confirmed with an anaerobic indicator inside the container. Where micro-aerophilic conditions are indicated, the candle-in-a-jar method was used (tea candle lit in an appropriate sealable container, which reduces oxygen levels until the flame dies out).

[2] = system: G. leopoldii strain Gv_11; assay: Quantitative reduction in viable CFU assay in bacterial suspension; type: cell-based, Gardnerella leopoldii; details: 5 hours, pH 5.0, anaerobic, 10 ul endolysin (0.2 mg/ml where possible) + 90 ul 5e7 CFU/ml, average of triplicate
Experimental: as §1, §2
as §3, with “out). Then each well was diluted in 5 steps (10^−1 to 10^−5) using 96-U-well bottom plates, and 2 μl of each dilution of each reaction mix are plated on BD Chocolate agar plates or BD Schaedler/5% sheep blood agar plates for Gardnerella and Lactobacilli, respectively, for detecting and quantifying surviving CFU. Detection plates were incubated at 37° C. for 48 hours under anaerobic conditions.” for “out).”

[3] = system: G. vaginalis sensu stricto strain Gv_9; assay: as above; type: cell-based, Gardnerella vaginalis sensu stricto; details: Gv_9; 5 hours, pH 5.0, anaerobic; 10 ul endolysin (0.2 mg/ml where possible) + 90 ul 5e7 CFU/ml; average of triplicate
Experimental: The lysis activity on the four main species of Gardnerella of 91 constructs (natural and domain-swapped endolysins) was quantitatively assessed using the method described in Reference Example 2. […]
as §2
as §3, with “out). Then each well was diluted in 5 steps (10^−1 to 10^−5) using 96-U-well bottom plates, and 2 μl of each dilution of each reaction mix are plated on BD Chocolate agar plates or BD Schaedler/5% sheep blood agar plates for Gardnerella and Lactobacilli, respectively, for detecting and quantifying surviving CFU. Detection plates were incubated at 37° C. for 48 hours under anaerobic conditions.” for “out).”

| Molecule | average of the log 10 activities of each construct across the four Gardnerella strains [1] | activity rank of all endolysins [1] | log 10 of the ratio of surviving CFU for treated vs. untreated cells [2] | log 10 of the ratio of surviving CFU for treated vs. untreated cells [3] |
| --- | --- | --- | --- | --- |
| H12B12: natural Gardnerella prophage endolysin from strain 3549624 (protein, EL12_strain_3549624_non-prophage) MSKKGIDVSVWQGDIDFNAVKASGVEFVIIRAGYGIGHKDKWFEENYRKAKTAGLDVGSYWYSYASSAGEVALEAQSCVNILSGKSFEYPVYFDLEEKSQLNRGRDFCDSLITSFCNKLEACGYYAGFYTSLSVANNLVSSHVRDRYALWIAQWNTHCSYQGSYGLWQYSSSGSVNGIAGRVDMDYAYVDYPSVIKNAGLNGYQNGGSYTAPQTSSIDEVAREVINGDWGNGIERKNRLTSAGYDYTSVQNKVNELLGVKAYRKSVDELAREVIRGTWGNGKTRKQRLTQAGYDYNAVQKRVNELL | −0.9 log 10 | 73 | −1.0 log 10 | −0.2 log 10 |
| H11B11: natural Gardnerella prophage endolysin from strain JCP8017A (protein, EL11_strain_JCP8017A, natural Gardnerella prophage endolysin from strain JCP8017A) MSKRGIDVSVWQGDIDFNAVKASGVEFVIIRAGYGIGHKDKWFEQNYRKAKTTGLDVGAYWYSYASSAGEAAEEAQSCVNILSGKSFEYPVYFDLEEKSQLNRGRDFCDSLITSFCNKLETYGYYAGFYTSLSVANNLVSSHVRDRYALWIAQWNTHCDYQGSYGLWQYSSSGSVDGIAGRVDMDYTYVDYPSVIKKAGLNGYKNGGSYTAPQTSSIDEVAREVINGDWGNGNERKNRLTSAGYDYTSVQNKVNELLGVKAYRKSVDELAREVIRGTWGNGSTRKQRLTQAGYDYDAVQKRVNELL | −1.5 log 10 | 57 | −1.6 log 10 | 0.1 log 10 |
